The record followed here is patent publication US20140079722A1, “EXTRACELLULAR TARGETED DRUG CONJUGATES” (CENTROSE, LLC, priority 2011, published 2014).

Series [1] deals with A549 xenografts. As to the kind of experiment: Second A549 xenograft study (tumor fragments). It counts as in vivo, female HRLN nu/nu mice. As to the method: Briefly, to establish a non-small-cell lung cancer disease model, subcutaneous A549 xenografts were initiated in female HRLN nu/nu mice by implanting 8 mm^3 A549 tumor fragments subcutaneously into the left flank. Tumor growth was monitored, and mice bearing tumors of 60-180 mm^3 were selected for the study. Tumor-bearing mice (n=7 mice/group) with a group average tumor volume of approximately 110 mm^3 were treated i.p. with 5 mgs/kg M53-PEG24-CEN09-106 at q3d×4, 20 mg/kg scillarenin-4-amino-deoxy-L-xylopryanoside (an intermediate in the construction of M53-PEG24-CEN09-106 and known cytotoxin) at q2dx5, and 15 mg/kg paclitaxel at q1d×5. Tumor volumes were measured for each group using calibrated vernier calipers plotted against day of first dose for 100 days to produce the graph shown in FIG. 4.
Paclitaxel at its optimum dosing produced 80% growth inhibition of the tumor when compared to vehicle.

The subject of series [2] is PANC-1 xenograft. As to the kind of experiment: PANC-1 xenograft model, alone and with gemcitabine. It is filed as in vivo, C.B-17/IcrHsd-Prkdc scid Lyst bg mice. As to the method: A disease model of pancreatic cancer was established by implanting 5×10^6 PANC-1 cells in 100 μL DMEM into the left flank of 7 week old female C.B-17/IcrHsd-Prkdc^scidLyst^bg mice. Mice were then treated with M53-PEG24-CEN09-106 with a drug loading of 8 and/or gemcitabine when the tumor size in groups of 3 animals averaged ˜500 mm^3. Treatments consisted of either vehicle control, M53-PEG24-CEN09-106 at 0.2, 1 and 5 mg/kg, with and without 60 mg/kg gemcitabine or 60 mg/kg gemcitabine alone and consisted of multiple injections using the M53-PEG24-CEN09-106 schedule of one injection every 7 days for 3 injections (q7d×3) administered i.v. and the gemcitabine schedule of one injection every 3 days for 5 injections (q3d×5) administered i.p. Tumor volumes were measured for each group using calibrated vernier calipers and plotted against first day of tumor implant for 28 days post-initial dose, graphed and shown in FIG. 6.

A short description of series [3]: Single intraperitoneal dose tolerability. It counts as in vivo, male BALB/c mice. The conditions noted are these: drug loading of 2, 500 mg/kg intraperitoneal. As to the method: In a separate experiment, male BALB/c mice (BALB/cAnNHsd, Harlan Laboratories) were administered a single and immediate dose of 500 mg/kg of M53-PEG24-CEN09-106 with a drug loading of 2 drugs per antibody by intraperitoneal injection. Animal weights were recorded over a 22 day period and visual observations were made over a period of 146 days and compared to mice receiving a vehicle control. […] Mice regained normal control body weight by day 15.

A short description of series [4]: Pharmacokinetics with varying drug loading (antigen binding ELISA). The conditions noted are these: SCID beige mice. It counts as in vivo. How it is done: Serum was isolated from blood samples taken by retro-orbital blood collection at 1 hour, and 1, 2, 3, 6, and 15 days post-injection. Blood was collected into heparin coated tubes followed by centrifugation (5,000×g, 5 minutes) to isolate plasma.
Antigen capture plates that were prepared by coating wells of 96 well clear bottom ELISA plates with CENP018 (SEQ ID NO: 17) conjugated to BSA at 400 ng BSA-peptide conjugate per well in 100 uL of 200 mM carbonate buffer, pH 9.6 overnight at 4° C. Antigen coated ELISA plates were washed (×3) with PBS pH 7, blocked 30 min with PBS pH 7 containing 1% NFDM (PBS+NFDM), and then washed (×3) with PBS, pH 7. […] Goat anti-mouse IgG alkaline phosphatase (cat. number: A1418, Sigma-Aldrich, St. Louis, Mo.) was diluted 1:15,000 in PBS+NFDM and added (100 uL) to each well, incubated 30 min at RT, and the wells washed (×3) with PBS, pH 7. PNPP at 1 mg/mL in 1M DEA with 50 mM MgCl2, pH 9.8 was added (100 uL per well), and the absorbance at 405 nm was determined using a Wallac Victor^2 Model 1420-041 assay plate reader (Perkin Elmer, Gaithersburg, Md.) every 5 minutes for a total of 6 reads. Absorbance values from known antibody concentration standards were used to determine the concentration of antibody in the serum samples.
(In general: An ELISA detects its analyte on a solid surface through an enzyme-linked reagent.)

The test system of series [5] is H460 xenograft. Description: H460 xenograft model. It counts as in vivo, Hsd:Athymic Nude-Foxn1nu mice. How it is done:
Briefly, to establish a large-cell lung cancer disease model, 1×10^6 H-460 cells in 100 μL RPMI1640+30% Matrigel HC (BD Biosciences, San Jose, Calif.) were implanted into the left flank of Hsd:Athymic Nude-Foxn1^nu mice (Harlan, Indianapolis, Ind.). Therapy was initiated when the tumor size in groups of 5 animals averaged ˜200 mm^3. Treatment using vehicle control, M53-PEG24-CEN09-106 at 0.1 and 1 mg/kg, and 10 mg/kg control M53-PEG24-CEN09-106 (as described above) consisted of multiple i.v. injections using the schedule of one injection every 7 days for 2 injections (q7d×2). Paclitaxel served as a positive control treatment group and was dosed i.v. at 15 mg/kg using the schedule of one injection every 2 days for 5 injections (q2d×5). Using this schedule, tumor volumes were measured for each group using calibrated vernier calipers and plotted against day of tumor implant for 24 days post-implant and 12 days post-initial dose, graphed and shown in FIG. 5.

Series [6] relates to H520. Description: In vitro cancer cell cytotoxicity (CellTiter-Glo cell viability). It is filed as cell-based, human. The source says: EDCs were constructed using linker-ready agents PEG24-CEN09-106, PEG24-CEN09-107, PEG24-CEN10-110 and PEG24-CEN-319. As described in Example 1, linker-ready agent PEG24-CEN-319 contain digitoxigenin while the others contain scillarenin. Linker-ready agents PEG24-CEN09-106, PEG24-CEN09-107, PEG24-CEN10-110 all use different linkers. Specifically, PEG24-CEN09-106 and PEG24-CEN09-107 have different sugars in the linker, while PEG24-CEN10-110 contains a longer linker that includes a primary amine.
All of the cell lines below, except H520, express the Na,K-ATPase with the dysadherin subunit and so present the target of the antibody and drug in close proximity.

B1: M53-PEG24-CEN09-106: Class 1 EDC: antibody M53 conjugated to linker-ready agent PEG24-CEN09-106 (scillarenin, 4-amino-xyloside, PEG24) (conjugate)
heavy: EVQLVESGGGLVQPKGTLKLSCAASGFSFNTHAMNWVRQAPGKSLEWVARTMSKSNNYATYYADSVKDRFIIRADDSQSMLYLQMNNLKTEDTAMYYCVRDDPKRGMDYWGQGTSVTVSSAKTTPPSVYPLAPGSAAQTNSMVTLGCLVKGYFPEPVTVTWNSGSLSSGVHTFPAVLQSDLYTLSSSVTVPSSTWPSETVTCNVAHPASSTKVDKKIE
light: GIVMSQSPSSLAVSVGEKVTMSCKPSQSLLYSRNQKIYLAWYQQKPGQSPKLLIYWASTRESGVPDRFTGSGSGTDFTLIISSVRAEDLAVYYCQQYYNYPLTFGAGTKLELKRADAAPTVSIFPPSSEQLTSGGASVVCFLNNFYPKDINVKWKIDGSERQNGVLNSWTDQDSKDSTYSMSSTLTLTKDEYERHNSYTCEATHKTSTSPIVKSFNR
One may read the EC50 as the concentration needed to bring the measured effect to its halfway point. Read a low EC50 as greater potency. Regarding B1, the “growth inhibition of the tumor compared to vehicle” value in series [1] (100 days post-initial dose, EDC (loading 3) 5 mg/kg i.p. q3dx4, scillarenin aminoxyloside 20 mg/kg q2dx5, paclitaxel 15 mg/kg q1dx5) was determined as 72%; in series [2] (drug loading of 8, 0.2 mg/kg i.v. q7dx3, day 28 post-initial dose), 38%; in series [2] (drug loading of 8, 1 mg/kg i.v. q7dx3, day 28 post-initial dose), 48%; in series [2] (drug loading of 8, 5 mg/kg i.v. q7dx3, day 28 post-initial dose), 76%; in series [5] (drug loading of 8, 0.1 mg/kg i.v. q7dx2, H460 xenograft) it was 38%; in series [5] (drug loading of 8, 1 mg/kg i.v. q7dx2, H460 xenograft), 73%. For the same molecule, the weight loss entry in series [1] (same dosing as efficacy arms, second A549 xenograft study) is “no weight loss”; in series [5] (EDC 0.1 mg/kg q7dx2, paclitaxel 15 mg/kg q2dx5, H460 xenograft), “no weight loss”. Also, the “growth inhibition of the tumor” value in series [2] (0.2 mg/kg i.v. q7dx3 combined with 60 mg/kg gemcitabine i.p. q3dx5) is 88%. In addition, the tumor response entry in series [2] (1 and 5 mg/kg i.v. q7dx3 combined with 60 mg/kg gemcitabine i.p. q3dx5) was “tumor regression”. Besides, the visual observations entry in series [3] (146 days) is recorded as “no overt signs of toxicity”. Besides, the “average loss in body weight” value in series [3] (first 6 days post injection) is reported as 30%. Further, the “serum half-life of detectable antibody” value in series [4] (drug loading of 2, 1 mg/kg tail vein) is “approximately 7 days”; in series [4] (drug loading of 5, 1 mg/kg tail vein) it was ~96 h; in series [4] (drug loading of 9, 1 mg/kg tail vein), ~48 h. For the same molecule, in series [6] (H520 cells (no FXYD5 surface expression), 3 days incubation), the EC50 was > 50 nM. Besides, the “activity on H520 cells” value in series [6] (H520 cells do not express dysadherin (FXYD5)) is on record as “not active”.
